B1: extracellular domain of CD147 (CD147^ECD) [human] / Trefoil factor 3 (TFF3), recombinant mature form (residues 22-80) [human] (parent complex)
chain 1: AAGTVFTTVEDLGSKILLTCSLNDSATEVTGHRWLKGGVVLKEDALPGQKTEFKVDSDDQWGEYSCVFLPEPMGTANIQLHGPPRVKAVKSSEHINEGETAMLVCKSESVPPVTDWAWYKITDSEDKALMNGSESRFFVSSSQGRSELHIENLNMEADPGQYRCNGTSSKGSDQAIITLRVRSH
chain 2: EEYVGLSANQCAVPAKDRVDCGYPHVTPKECNNRGCCFDSRIPGVPWCFKPLQEAECTF

Variants of: B1
Assay: SPR (Biacore); value read at end of injection, ~120 s; concentrations not given; read off a plot

| Variant | response |
| --- | --- |
| chain 1 R145A | ~8.7 Ru |
| chain 1 R33A | ~2 Ru |
| chain 1 T100A | ~14 Ru |

The next lines start with the values.

| response | Variant |
| --- | --- |
| ~4.7 Ru | chain 1 V110A |
| ~4.3 Ru | chain 1 G74A |

From article PMC8280106 (2021)
